Here are results for three molecules from patent publication CN116615457A (ICONOSCO S A, dated 2023).

Assay [1] addresses T1, 重组人IL-1RAP-ECD(S21-E359)-avi-his蛋白 (human, UniProt Q9NPH3 21-359, biotinylated in the BLI binning assay).
T1 construct: also called 人IL-1RAP-ECD-Avi-His; 重组人IL-1RAP-avi-his蛋白
T1 sequence: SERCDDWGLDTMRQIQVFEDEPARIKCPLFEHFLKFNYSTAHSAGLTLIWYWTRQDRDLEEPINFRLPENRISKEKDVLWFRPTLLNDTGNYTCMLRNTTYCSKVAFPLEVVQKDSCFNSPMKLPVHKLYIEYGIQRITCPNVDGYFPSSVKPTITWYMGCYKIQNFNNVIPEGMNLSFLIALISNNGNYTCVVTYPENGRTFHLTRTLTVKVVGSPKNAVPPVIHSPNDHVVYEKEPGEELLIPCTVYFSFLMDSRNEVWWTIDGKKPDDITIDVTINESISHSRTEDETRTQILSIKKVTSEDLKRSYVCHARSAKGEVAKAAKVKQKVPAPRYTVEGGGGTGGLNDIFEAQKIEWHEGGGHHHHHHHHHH
The assay can be described thus: SPR; IgG1 LALA captured on anti-human IgG Fc chip, human IL-1RAP-avi-his as analyte. Background: In SPR one partner is held on a chip, and binding of the other changes the refractive index at the surface.

In assay [2] the target is T2, 重组食蟹猴IL-1RAP-ECD(S21-E359)-avi-his蛋白 (cynomolgus monkey, UniProt P59822 21-359 (rhesus entry), biotinylated in the Fab SPR assay).
T2 construct: also called 食蟹猴IL-1RAP-ECD-Avi-His; 重组食蟹猴IL-1RAP-avi-his蛋白
T2 sequence: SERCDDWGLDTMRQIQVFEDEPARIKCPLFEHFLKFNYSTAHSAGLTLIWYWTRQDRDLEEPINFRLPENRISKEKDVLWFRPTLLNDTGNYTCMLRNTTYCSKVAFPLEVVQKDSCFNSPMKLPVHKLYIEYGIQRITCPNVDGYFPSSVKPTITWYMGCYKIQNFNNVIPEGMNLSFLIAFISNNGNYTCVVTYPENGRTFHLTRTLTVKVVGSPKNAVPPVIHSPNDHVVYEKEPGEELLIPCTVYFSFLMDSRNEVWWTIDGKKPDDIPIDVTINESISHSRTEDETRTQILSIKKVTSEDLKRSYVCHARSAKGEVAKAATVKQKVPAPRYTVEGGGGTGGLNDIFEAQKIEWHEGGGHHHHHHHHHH
Put plainly: SPR; IgG1 LALA captured on anti-human IgG Fc chip, cynomolgus IL-1RAP-avi-his as analyte.

In assay [3] the target is T3, 膜结合的小鼠IL-1RAP (NIH-3T3细胞) (mouse, UniProt Q61730 21-570).
T3 construct: whole, on cells; also called mouse IL-1RAP on NIH-3T3 cells
T3 sequence (looked up): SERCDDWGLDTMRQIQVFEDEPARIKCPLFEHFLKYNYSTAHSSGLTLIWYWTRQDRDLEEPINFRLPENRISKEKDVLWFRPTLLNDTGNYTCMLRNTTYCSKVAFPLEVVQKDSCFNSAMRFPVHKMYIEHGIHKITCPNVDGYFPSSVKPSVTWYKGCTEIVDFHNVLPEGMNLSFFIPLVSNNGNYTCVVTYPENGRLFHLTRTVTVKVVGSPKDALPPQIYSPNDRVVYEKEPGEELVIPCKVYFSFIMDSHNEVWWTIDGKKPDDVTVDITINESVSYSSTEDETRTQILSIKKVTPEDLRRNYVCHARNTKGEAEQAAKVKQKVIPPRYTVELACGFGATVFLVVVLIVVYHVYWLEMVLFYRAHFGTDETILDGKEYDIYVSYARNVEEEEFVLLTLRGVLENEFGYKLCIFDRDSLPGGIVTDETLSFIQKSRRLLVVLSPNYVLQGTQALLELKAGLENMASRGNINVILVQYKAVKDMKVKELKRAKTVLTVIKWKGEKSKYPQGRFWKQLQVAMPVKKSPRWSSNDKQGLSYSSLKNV
Put plainly: flow cytometry (Fig. 11 legend).

In assay [4] the target is T2, 重组食蟹猴IL-1RAP-ECD(S21-E359)-avi-his蛋白. Put plainly: SPR; KD on cynomolgus IL-1RAP against KD on human IL-1RAP.

B1: 抗IL-1RAP-C8-RecC IgG1 LALA (antibody, V domains shown)
VH: QVQLVQSGAEVKKPGSSVKVSCKASGSPAEPYAIQWVRQAPGQGLEWMGYIIPSLGGYDYAQKFQGRVTITADESTSTAYMELSSLRSEDTAVYYCARGQTLYDSGRQFDIWGQGTLVTVSS
VL: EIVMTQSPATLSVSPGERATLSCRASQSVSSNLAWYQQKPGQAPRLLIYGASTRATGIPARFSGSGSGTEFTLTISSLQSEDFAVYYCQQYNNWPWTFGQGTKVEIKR
notes: Human IgG1 LALA format; also called 亲本克隆抗IL-1RAP-C8-RecC; anti-IL-1RAP-C8-RecC IgG1 LALA
B1: the binding result in assay [1] and in assay [2] was “binds” throughout.

B2: 抗IL-1RAP-C3-A3-mmIgG2a-LALA (antibody, V domains shown)
VH: EVQLLESGGGLVQPGGSLRLSCAASGFIFSHYGMSWVRQAPGKGLEWVSAISYDGEGTLYADSVKGRFTISRDNSKNTLYLQMNSLRAEDTAVYYCARFRYYTAFDYWGQGTLVTVSS
VL: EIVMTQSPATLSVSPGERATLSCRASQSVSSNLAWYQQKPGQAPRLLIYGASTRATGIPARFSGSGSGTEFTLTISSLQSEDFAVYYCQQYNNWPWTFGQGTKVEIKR
notes: Mouse IgG2a LALA; also called 抗IL-1RAP-C3-A3小鼠IgG2a LALA; 抗IL-1RAP-C3-A3克隆
For B2, the binding result in assay [3] is recorded as “binds”.

B3: 抗IL-1RAP-UCP02-C3 Fab (Fab, V domains shown)
VH: EVQLLESGGGLVQPGGSLRLSCAASGFTFRDYAMGWVRQAPGKGLEWVSAISYDGEGTLYADSVKGRFTISRDNSKNTLYLQMNSLRAEDTAVYYCARFRYYTAFDYWGQGTLVTVSS
VL: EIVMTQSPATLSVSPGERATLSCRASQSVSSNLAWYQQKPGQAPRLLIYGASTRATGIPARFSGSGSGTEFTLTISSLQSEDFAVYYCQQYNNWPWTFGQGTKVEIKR
notes: also called 抗IL-1RAP-C3; 抗IL-1RAP-C3 Fab
On to B3, for which the “fold lower affinity than for human IL-1RAP” value in assay [4] was approximately 40 fold.
